1 molecule from article PMC3091956 can be followed below.

The assay deals with T1, 6xHis-Stg (N-terminally histidine-tagged full-length mouse stargazin) (mouse), O88602.
T1 chain: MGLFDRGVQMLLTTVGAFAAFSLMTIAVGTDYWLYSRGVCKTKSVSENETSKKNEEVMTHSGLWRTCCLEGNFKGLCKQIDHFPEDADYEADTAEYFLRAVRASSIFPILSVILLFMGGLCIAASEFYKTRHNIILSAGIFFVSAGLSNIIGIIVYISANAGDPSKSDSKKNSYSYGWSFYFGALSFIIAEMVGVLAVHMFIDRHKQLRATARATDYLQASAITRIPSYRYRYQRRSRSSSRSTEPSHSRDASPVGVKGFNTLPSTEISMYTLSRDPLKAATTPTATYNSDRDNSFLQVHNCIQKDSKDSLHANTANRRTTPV
The assay can be described thus: electron crystallography of 2D crystals. Conditions: remark: other sources report otherwise.

B1: 6xHis-Stg (N-terminally histidine-tagged full-length mouse stargazin), O88602 1-323 (natural protein)
chain: MGLFDRGVQMLLTTVGAFAAFSLMTIAVGTDYWLYSRGVCKTKSVSENETSKKNEEVMTHSGLWRTCCLEGNFKGLCKQIDHFPEDADYEADTAEYFLRAVRASSIFPILSVILLFMGGLCIAASEFYKTRHNIILSAGIFFVSAGLSNIIGIIVYISANAGDPSKSDSKKNSYSYGWSFYFGALSFIIAEMVGVLAVHMFIDRHKQLRATARATDYLQASAITRIPSYRYRYQRRSRSSSRSTEPSHSRDASPVGVKGFNTLPSTEISMYTLSRDPLKAATTPTATYNSDRDNSFLQVHNCIQKDSKDSLHANTANRRTTPV
As for B1, the stoichiometry N worked out at 2.

The stoichiometry N is the number of molecules, sites or subunits per partner or assembly.
